Measurements taken from PMC3774712, “Characterization of a Self-sufficient Trans-Anethole Oxygenase from Pseudomonas putida JYR-1” (PLoS ONE, 2013).

Key:
[1] = target: T1, GST-TAO (N1–261) (Pseudomonas putida, UniProt H8Y0R3); assay: ultrafiltration, fluorescence of unbound FAD; type: binding; details: 3 µM FAD, 3 µM enzyme, 20 mM Tris-HCl pH 8.0, 25°C
T1 construct: N-terminal fragment residues 1-261, N-terminal GST tag kept, expressed in E. coli BL21(DE3), purified
T1 sequence (H8Y0R3 1-261): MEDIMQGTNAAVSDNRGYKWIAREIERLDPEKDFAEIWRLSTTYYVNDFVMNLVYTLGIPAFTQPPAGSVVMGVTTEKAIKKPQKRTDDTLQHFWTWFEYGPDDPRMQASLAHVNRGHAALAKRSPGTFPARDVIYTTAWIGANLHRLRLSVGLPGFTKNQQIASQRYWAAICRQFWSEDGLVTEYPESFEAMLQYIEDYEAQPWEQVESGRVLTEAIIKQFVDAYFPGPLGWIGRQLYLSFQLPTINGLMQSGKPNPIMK
From the text: ultrafiltration, fluorescence of unbound FAD on GST-TAO (N1–261)

[2] = target: T2, GST-TAO (N1–174) (Pseudomonas putida, UniProt H8Y0R3); assay: ultrafiltration, fluorescence of unbound FAD; type: binding; details: 3 µM FAD, 3 µM enzyme, 20 mM Tris-HCl pH 8.0, 25°C
T2 construct: N-terminal fragment residues 1-174, N-terminal GST tag kept, expressed in E. coli BL21(DE3), purified
T2 sequence (H8Y0R3 1-174): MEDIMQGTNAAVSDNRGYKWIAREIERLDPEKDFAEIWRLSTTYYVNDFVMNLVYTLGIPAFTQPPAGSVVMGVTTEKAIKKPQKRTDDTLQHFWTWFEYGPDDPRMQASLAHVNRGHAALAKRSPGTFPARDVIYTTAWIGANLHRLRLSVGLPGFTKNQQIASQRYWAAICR
From the text: ultrafiltration, fluorescence of unbound FAD on GST-TAO (N1–174)

[3] = target: T3, GST-TAO (N1–304) (Pseudomonas putida, UniProt H8Y0R3); assay: ultrafiltration, fluorescence of unbound FAD; type: binding; details: 3 µM FAD, 3 µM enzyme, 20 mM Tris-HCl pH 8.0, 25°C
T3 construct: N-terminal fragment residues 1-304, N-terminal GST tag kept, expressed in E. coli BL21(DE3), purified
T3 sequence (H8Y0R3 1-304): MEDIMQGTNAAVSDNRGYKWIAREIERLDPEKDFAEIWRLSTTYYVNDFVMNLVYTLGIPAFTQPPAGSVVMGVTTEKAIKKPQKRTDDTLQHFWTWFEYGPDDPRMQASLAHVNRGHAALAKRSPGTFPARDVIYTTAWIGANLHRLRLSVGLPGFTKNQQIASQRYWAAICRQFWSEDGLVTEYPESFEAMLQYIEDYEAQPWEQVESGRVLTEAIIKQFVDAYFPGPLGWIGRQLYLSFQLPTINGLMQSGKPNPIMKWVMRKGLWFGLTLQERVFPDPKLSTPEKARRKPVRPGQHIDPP
From the text: ultrafiltration, fluorescence of unbound FAD on GST-TAO (N1–304)

[4] = target: T4, GST-TAO (wild-type, N1-348) (Pseudomonas putida, UniProt H8Y0R3); assay: ultrafiltration, fluorescence of unbound FAD; type: binding; details: 3 µM FAD, 3 µM enzyme, 20 mM Tris-HCl pH 8.0, 25°C
T4 construct: full length TAO (348 aa, 39,328 Da calculated), N-terminal GST tag kept (pGEX-5X-1), expressed in E. coli BL21(DE3), GSTrap purified, 68 kDa on SDS-PAGE
T4 sequence (H8Y0R3 1-348): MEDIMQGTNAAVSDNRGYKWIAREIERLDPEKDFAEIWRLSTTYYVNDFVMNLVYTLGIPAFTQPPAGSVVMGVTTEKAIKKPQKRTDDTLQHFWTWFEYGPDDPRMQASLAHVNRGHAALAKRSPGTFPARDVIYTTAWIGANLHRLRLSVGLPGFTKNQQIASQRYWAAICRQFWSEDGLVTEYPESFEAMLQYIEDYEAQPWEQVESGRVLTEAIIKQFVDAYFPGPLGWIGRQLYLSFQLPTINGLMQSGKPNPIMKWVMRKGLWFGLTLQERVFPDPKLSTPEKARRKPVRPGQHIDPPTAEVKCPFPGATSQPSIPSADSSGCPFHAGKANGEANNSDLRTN
From the text: ultrafiltration, fluorescence of unbound FAD on GST-TAO (wild-type, N1-348)

[5] = target: T5, GST-TAO (N1–104) (Pseudomonas putida, UniProt H8Y0R3); assay: ultrafiltration, fluorescence of unbound FAD; type: binding; details: 3 µM FAD, 3 µM enzyme, 20 mM Tris-HCl pH 8.0, 25°C
T5 construct: N-terminal fragment residues 1-104, N-terminal GST tag kept, expressed in E. coli BL21(DE3), purified
T5 sequence (H8Y0R3 1-104): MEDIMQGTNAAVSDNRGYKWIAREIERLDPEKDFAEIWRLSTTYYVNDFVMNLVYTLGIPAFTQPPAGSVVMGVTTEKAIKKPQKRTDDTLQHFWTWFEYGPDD
From the text: ultrafiltration, fluorescence of unbound FAD on GST-TAO (N1–104)

[6] = target: T6, GST-TAO (N175–348) (Pseudomonas putida, UniProt H8Y0R3); assay: ultrafiltration, fluorescence of unbound FAD; type: binding; details: 3 µM FAD, 3 µM enzyme, 20 mM Tris-HCl pH 8.0, 25°C
T6 construct: C-terminal fragment residues 175-348 (plasmid pGEX-TAO (C174)), N-terminal GST tag kept, expressed in E. coli BL21(DE3), purified
T6 sequence (H8Y0R3 175-348): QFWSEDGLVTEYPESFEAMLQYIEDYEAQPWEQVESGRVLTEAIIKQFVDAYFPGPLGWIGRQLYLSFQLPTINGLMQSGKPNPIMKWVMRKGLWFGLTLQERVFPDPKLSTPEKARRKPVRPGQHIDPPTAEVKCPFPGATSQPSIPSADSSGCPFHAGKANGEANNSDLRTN
From the text: ultrafiltration, fluorescence of unbound FAD on GST-TAO (N175–348)

[7] = substrate: C/C=C/c1ccc(OC)c(OC)c1; assay: purified protein; details: 10 mM NADH, 15 µM FAD, pH 8.0, 30°C, formate dehydrogenase regeneration
From the text: (§1) HPLC of aldehyde product, Michaelis-Menten nonlinear regression on GST-TAO (wild-type, N1-348)

[8] = substrate: CC=Cc1ccc2c(c1)OCO2; assay: purified protein; details: 10 mM NADH, 15 µM FAD, pH 8.0, 30°C, formate dehydrogenase regeneration
From the text: as §1

[9] = substrate: CC=Cc1ccc(O)c(OC)c1; assay: purified protein; details: 10 mM NADH, 15 µM FAD, pH 8.0, 30°C, formate dehydrogenase regeneration
From the text: as §1

[10] = substrate: C/C=C/c1ccc(OC)cc1; assay: HPLC of p-anisaldehyde product, Michaelis-Menten nonlinear regression; type: biochemical, Pseudomonas putida; details: 10 mM NADH, 15 µM FAD, pH 8.0, 30°C, formate dehydrogenase regeneration, text b30 prints 64.70±2.40
From the text: HPLC of p-anisaldehyde product, Michaelis-Menten nonlinear regression on GST-TAO (wild-type, N1-348)

In the case of `Cc1cc2nc3c(=O)[nH]c(=O)nc-3n(C[C@H](O)[C@H](O)[C@H](O)COP(=O)(O)OP(=O)(O)OC[C@H]3O[C@@H](n4cnc5c(N)ncnc54)[C@H](O)[C@@H]3O)c2cc1C` [FAD], the “μM FAD/μM enzyme” value [1] is reported as 0.15±0.04 µM FAD/µM enzyme, the “μM FAD/μM enzyme” value [2] is reported as 0.18±0.03 µM FAD/µM enzyme and the “μM FAD/μM enzyme” value [3] is reported as 0.19±0.04 µM FAD/µM enzyme. For the same molecule, the “μM FAD/μM enzyme” value [4] was 0.30±0.05 µM FAD/µM enzyme, the “μM FAD/μM enzyme” value [5] was 0.20±0.01 µM FAD/µM enzyme and the “μM FAD/μM enzyme” value [6] was 0.02±0.02 µM FAD/µM enzyme.

B1: GST-TAO (wild-type, N1-348) (Pseudomonas putida) (protein)
chain: MEDIMQGTNAAVSDNRGYKWIAREIERLDPEKDFAEIWRLSTTYYVNDFVMNLVYTLGIPAFTQPPAGSVVMGVTTEKAIKKPQKRTDDTLQHFWTWFEYGPDDPRMQASLAHVNRGHAALAKRSPGTFPARDVIYTTAWIGANLHRLRLSVGLPGFTKNQQIASQRYWAAICRQFWSEDGLVTEYPESFEAMLQYIEDYEAQPWEQVESGRVLTEAIIKQFVDAYFPGPLGWIGRQLYLSFQLPTINGLMQSGKPNPIMKWVMRKGLWFGLTLQERVFPDPKLSTPEKARRKPVRPGQHIDPPTAEVKCPFPGATSQPSIPSADSSGCPFHAGKANGEANNSDLRTN
notes: full length TAO (348 aa, 39,328 Da calculated), N-terminal GST tag kept (pGEX-5X-1), expressed in E. coli BL21(DE3), GSTrap purified, 68 kDa on SDS-PAGE
With B1 the Km [7] was 225.65 ± 22.27 µM, the Vmax [7] was 0.06 µmol/min/mg and the kcat [7] was 0.13 s⁻¹. It also gave a kcat/Km [7] of 560 M⁻¹ s⁻¹, a Km [8] of 229.50 ± 32.10 µM and a Vmax [8] of 0.26 µmol/min/mg. For the same molecule, the kcat [8] was 0.56 s⁻¹, the kcat/Km [8] was 2450 M⁻¹ s⁻¹ and the Km [9] was 2255.00 ± 346.48 µM. For the same molecule, the Vmax [9] was 0.52 µmol/min/mg, the kcat [9] was 1.13 s⁻¹ and the kcat/Km [9] was 500 M⁻¹ s⁻¹. The Km [10] was 63.70 ± 2.40 µM, the Vmax [10] was 0.23 µmol/min/mg and the kcat [10] was 0.49 s⁻¹. It also gave a kcat/Km [10] of 7690 M⁻¹ s⁻¹.
